# In patent publication US20220389118A1 (Chugai, published 2022):
# Residue numbers refer to the chain shown, from its start.
# B1: IL6R-BP504/IL6R-L (antibody, human IgG1, kappa)
# heavy: QVQLQESGPGLVKPSETLSLTCAVSGHSISHDHAWSWVRQPPGEGLEWIGFISYSGITNYNPSLQGRVTISRDNSKNTLYLQMNSLRAEDTAVYYCARSLARTTAMDYWGEGTLVTVSSASTKGPSVFPLAPSSKSTSGGTAALGCLVKDYFPEPVTVSWNSGALTSGVHTFPAVLQSSGLYSLSSVVTVPSSSLGTQTYICNVNHKPSNTKVDKKVEPKSCDKTHTCPPCPAPDLLGDDSVFLFPPKPKDTLMISRTPEVTCVVIDVAEEDGPVKFNWYVDGVEVHNAKTKPREEQYNSTYRVVSVLTVLHQDWLNGKEYKCKVSNKALPAPIEKTISKAKGQPREPQVYTLPPSRDELTKNQVSLTCLVKGFYPSDIAVEWESNGQPENNYKTTPPVLDSDGSFFLYSKLTVDKSRWQQGNVFSCSVMHEALHNHYTQESLSLSP
# light: not shown
# notes: copies: 2 + 2
# B2: IL6R-BP505/IL6R-L (antibody, human IgG1, kappa)
# heavy: B1 heavy with P274D
# light: not shown
# notes: copies: 2 + 2
# B3: IL6R-BP494/IL6R-L (antibody, human IgG1, kappa)
# heavy: B1 heavy with D235E, I266V, P274E, Y298D, A332R
# light: not shown
# notes: copies: 2 + 2
# B4: IL6R-BP269/IL6R-L (antibody, human IgG1, kappa)
# heavy: B1 heavy with D235E, I266V, A269S, P274E, Y298D
# light: not shown
# notes: copies: 2 + 2
# B5: IL6R-BP262/IL6R-L (antibody, human IgG1, kappa)
# heavy: B1 heavy with D235E, I266V, A269S, P274E
# light: not shown
# notes: copies: 2 + 2
# B6: IL6R-BP481/IL6R-L (antibody, human IgG1, kappa)
# heavy: B1 heavy with P274E
# light: not shown
# notes: copies: 2 + 2
# B7: IL6R-BP479/IL6R-L (antibody, human IgG1, kappa)
# heavy: B1 heavy with V268L, P274E
# light: not shown
# notes: copies: 2 + 2
# B8: IL6R-BP483/IL6R-L (antibody, human IgG1, kappa)
# heavy: B1 heavy with I266V, V268L, P274E
# light: not shown
# notes: copies: 2 + 2
# B9: IL6R-BP484/IL6R-L (antibody, human IgG1, kappa)
# heavy: B1 heavy with I266V, E271D, P274E
# light: not shown
# notes: copies: 2 + 2
# B10: IL6R-BP445/IL6R-L (antibody, human IgG1, kappa)
# heavy: B1 heavy with P274E, A332R
# light: not shown
# notes: copies: 2 + 2
# B11: IL6R-BP534/IL6R-L (antibody, human IgG1, kappa)
# heavy: B1 heavy with A269S, P274E, Y298D, A332R, P398L
# light: not shown
# notes: copies: 2 + 2
# B12: IL6R-BP552/IL6R-L (antibody, human IgG1, kappa)
# heavy: B1 heavy with P274D, Y298D, A332R
# light: not shown
# notes: copies: 2 + 2
# B13: IL6R-BP507/IL6R-L (antibody, human IgG1, kappa)
# heavy: B1 heavy with A332R
# light: not shown
# notes: copies: 2 + 2
# B14: IL6R-BP555/IL6R-L (antibody, human IgG1, kappa)
# heavy: B1 heavy with D235E, P274D, Y298D, A332R
# light: not shown
# notes: copies: 2 + 2
# B15: IL6R-BP531/IL6R-L (antibody, human IgG1, kappa)
# heavy: B1 heavy with A269G, P274E, Y298D, A332R, P398M
# light: not shown
# notes: copies: 2 + 2
# B16: IL6R-BP490/IL6R-L (antibody, human IgG1, kappa)
# heavy: B1 heavy with D235E, P274E, A332R
# light: not shown
# notes: copies: 2 + 2
# B17: IL6R-BP506/IL6R-L (antibody, human IgG1, kappa)
# heavy: B1 heavy with Y298D, A332R
# light: not shown
# notes: copies: 2 + 2
# B18: IL6R-BP535/IL6R-L (antibody, human IgG1, kappa)
# heavy: B1 heavy with A269G, P274E, Y298D, A329G, A332R, P398M
# light: not shown
# notes: copies: 2 + 2
# B19: IL6R-BP553/IL6R-L (antibody, human IgG1, kappa)
# heavy: B1 heavy with P274D, A332R
# light: not shown
# notes: copies: 2 + 2
# B20: IL6R-BP532/IL6R-L (antibody, human IgG1, kappa)
# heavy: B1 heavy with A269S, P274E, Y298D, A332R, P398M
# light: not shown
# notes: copies: 2 + 2
# B21: IL6R-BP537/IL6R-L (antibody, human IgG1, kappa)
# heavy: B1 heavy with D235E, A269G, P274E, A332R
# light: not shown
# notes: copies: 2 + 2
# B22: IL6R-BP480/IL6R-L (antibody, human IgG1, kappa)
# heavy: B1 heavy with I266V, V268L, A269S, E271D, P274E
# light: not shown
# notes: copies: 2 + 2
# B23: IL6R-BP264/IL6R-L (antibody, human IgG1, kappa)
# heavy: B1 heavy with I266V, A269S, P274E, Y298D, A332R
# light: not shown
# notes: copies: 2 + 2
# B24: IL6R-BP426/IL6R-L (antibody, human IgG1, kappa)
# heavy: B1 heavy with I266V, E271D, P274E, A332R
# light: not shown
# notes: copies: 2 + 2
# B25: IL6R-BP501/IL6R-L (antibody, human IgG1, kappa)
# heavy: B1 heavy with D235E, P274E
# light: not shown
# notes: copies: 2 + 2
# B26: IL6R-BP435/IL6R-L (antibody, human IgG1, kappa)
# heavy: B1 heavy with I266V, A269S, E270D, P274E, Y298D, K328A, A332R, I334T
# light: not shown
# notes: copies: 2 + 2
# B27: IL6R-BP268/IL6R-L (antibody, human IgG1, kappa)
# heavy: B1 heavy with I266V, A269S, P274E, Y298D
# light: not shown
# notes: copies: 2 + 2
# B28: IL6R-BP495/IL6R-L (antibody, human IgG1, kappa)
# heavy: B1 heavy with D235E, I266V, A269G, P274E, Y298D, A332R
# light: not shown
# notes: copies: 2 + 2
# Target: T1, human FcγRIIb extracellular domain with C-terminal His tag (human, UniProt P31994 43-217)
# T1 construct: extracellular domain
# T1 sequence (looked up): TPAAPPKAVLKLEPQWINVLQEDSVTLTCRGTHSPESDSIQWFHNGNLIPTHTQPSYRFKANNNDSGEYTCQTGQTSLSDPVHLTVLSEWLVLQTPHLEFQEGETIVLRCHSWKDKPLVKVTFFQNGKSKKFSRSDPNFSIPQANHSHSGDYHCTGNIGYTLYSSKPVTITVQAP
# Assay: SPR (Biacore), ratio of KDs
KD(IIaH)/KD(IIb),KD(IIaR)/KD(IIb),Binder
658,18.5,B1
514,20,B2
821,38.6,B3
637,19.6,B4
375,17,B5
350,20.5,B6
268,16.1,B7
231,16.8,B8
241,17.1,B9

# Target: T2, human FcγRIIa type R extracellular domain with C-terminal His tag (human, UniProt P12318 34-217)
# T2 construct: extracellular domain; also called FcγRIIaR; FcγRIIa(R)
# T2 sequence (looked up): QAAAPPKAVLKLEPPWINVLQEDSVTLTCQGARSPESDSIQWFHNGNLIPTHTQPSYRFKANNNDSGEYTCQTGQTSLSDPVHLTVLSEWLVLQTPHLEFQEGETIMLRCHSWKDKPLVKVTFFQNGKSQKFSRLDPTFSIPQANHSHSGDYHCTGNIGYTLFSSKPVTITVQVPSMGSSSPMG
# Assay: SPR (Biacore)
row,Kd,Binder
1,80 nM,B10
2,450 nM,B1
3,91 nM,B11
4,97 nM,B12
5,100 nM,B13
6,160 nM,B14
7,430 nM,B2
8,120 nM,B15
9,110 nM,B16
10,250 nM,B3
11,120 nM,B17
12,92 nM,B18
13,2200 nM,B4
14,2000 nM,B5
15,400 nM,B6
16,86 nM,B19
17,94 nM,B20
18,900 nM,B7
19,270 nM,B21
20,1300 nM,B8
21,6300 nM,B22
22,780 nM,B9
23,350 nM,B23

# Target: T3, human FcγRIa extracellular domain with C-terminal His tag (human, UniProt P12314 16-292)
# T3 construct: extracellular domain
# T3 sequence (P12314 16-292): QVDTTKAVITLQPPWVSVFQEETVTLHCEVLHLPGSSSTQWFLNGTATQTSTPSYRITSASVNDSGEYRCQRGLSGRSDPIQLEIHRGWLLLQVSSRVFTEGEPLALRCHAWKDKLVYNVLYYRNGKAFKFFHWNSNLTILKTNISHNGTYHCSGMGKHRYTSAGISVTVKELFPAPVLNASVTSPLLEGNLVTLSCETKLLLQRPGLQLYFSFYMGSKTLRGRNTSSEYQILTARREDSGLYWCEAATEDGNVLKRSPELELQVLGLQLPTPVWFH
# Assay: SPR (Biacore)
row,Kd,Binder
1,2 nM,B10
2,1.4 nM,B1
3,9.3 nM,B11
4,3.2 nM,B12
5,1 nM,B24
6,2.6 nM,B13
7,9.4 nM,B14
8,1.1 nM,B2
9,2.1 nM,B25
10,9.4 nM,B15
11,4.5 nM,B16
12,3.9 nM,B3
13,3.1 nM,B17
14,11 nM,B18
15,14 nM,B4
16,1 nM,B26
17,10 nM,B5
18,1 nM,B6
19,3.4 nM,B19
20,4.5 nM,B27
21,12 nM,B20
22,5.3 nM,B7
23,29 nM,B21
24,1.3 nM,B8
25,0.82 nM,B9
26,7.4 nM,B23
27,8.3 nM,B28

# Target: T1, human FcγRIIb extracellular domain with …
# Assay: SPR (Biacore)
row,Kd,Binder
1,2.6 nM,B10
2,24 nM,B1
3,3 nM,B11
4,2.6 nM,B12
5,2.9 nM,B13
6,4.1 nM,B14
7,21 nM,B2
8,25 nM,B25
9,3.8 nM,B15
10,2.4 nM,B16
11,6.6 nM,B3
12,3.4 nM,B17
13,4 nM,B18
14,110 nM,B4
15,120 nM,B5
16,19 nM,B6
17,3.1 nM,B19
18,92 nM,B27
19,3.2 nM,B20
20,56 nM,B7
21,6.9 nM,B21
22,78 nM,B8
23,200 nM,B22
24,46 nM,B9
25,9.7 nM,B28

# Target: T2, human FcγRIIa type R extracellular …
# Assay: SPR (Biacore), parent IL6R-B3/IL6R-L
row,KD(IIaR) parent/KD(IIaR) altered polypeptide,Binder
1,2.4,B1
2,2.6,B2
3,4.3,B3
4,0.5,B4
5,0.5,B5
6,2.8,B6
7,1.2,B7
8,0.8,B8
9,1.4,B9

# Target: T1, human FcγRIIb extracellular domain with …
# Assay: SPR (Biacore), parent IL6R-B3/IL6R-L
row,KD(IIb) parent/KD(IIb) altered polypeptide,Binder
1,128,B1
2,145,B2
3,471,B3
4,27.4,B4
5,25.8,B5
6,160,B6
7,55.5,B7
8,39.7,B8
9,67.8,B9
